Measurements published in article PMC3501574.
pKd: −log10 of the molar value.

Target: Biotinylated IL-2Rβ (human) (UniProt P14784)
Test: SPR

| Substance | pKd |
| --- | --- |
| IL-15 (1–114) (ligand) | 6.36 |
| IL-15—IL-15Rα complex (IL-15 co-expressed with IL-15Rα (1–64)) | 8.52 |
